From PMC5366289 (Biochemistry, 2016)
Read-outs that look alike come from different tables or passages of the source.

B1: colicin E1 T-domain peptide T57–120 (domain or fragment, UniProt P02978 57-120, looked up)
chain: WSTAQLKKTQAEQAARAKAAAEAQAKAKANRDALTQRLKDIVNEALRHNASRTPSATELAHANN
B2: 41–120 ^b: colicin E1 T-domain peptide, residues 41–120 (peptide, UniProt P02978 41-120, looked up, fragment)
chain: GGSKSESSAAIHATAKWSTAQLKKTQAEQAARAKAAAEAQAKAKANRDALTQRLKDIVNEALRHNASRTPSATELAHANN
B3: colicin E1 T-domain peptide T1–140 (domain or fragment, UniProt P02978 1-140, looked up)
chain: METAVAYYKDGVPYDDKGQVIITLLNGTPDGSGSGGGGGKGGSKSESSAAIHATAKWSTAQLKKTQAEQAARAKAAAEAQAKAKANRDALTQRLKDIVNEALRHNASRTPSATELAHANNAAMQAEDERLRLAKAEEKAR
B4: 100–190 ^b: colicin E1 T-domain peptide, residues 100–190 (peptide, UniProt P02978 100-190, looked up, fragment)
chain: EALRHNASRTPSATELAHANNAAMQAEDERLRLAKAEEKARKEAEAAEKAFQEAEQRRKEIEREKAETERQLKLAEAEEKRLAALSEEAKA
B5: colicin E1 T-domain peptide T1–120 (domain or fragment, UniProt P02978 1-120, looked up)
chain: METAVAYYKDGVPYDDKGQVIITLLNGTPDGSGSGGGGGKGGSKSESSAAIHATAKWSTAQLKKTQAEQAARAKAAAEAQAKAKANRDALTQRLKDIVNEALRHNASRTPSATELAHANN
B6: colicin E1 T-domain peptide T57–140 (domain or fragment)
chain: WSTAQLKKTQAEQAARAKAAAEAQAKAKANRDALTQRLKDIVNEALRHNASRTPSATELAHANNAAMQAEDERLRLAKAEEKAR
B7: 41–140 ^b: colicin E1 T-domain peptide, residues 41–140 (peptide, UniProt P02978 41-140, looked up, fragment)
chain: GGSKSESSAAIHATAKWSTAQLKKTQAEQAARAKAAAEAQAKAKANRDALTQRLKDIVNEALRHNASRTPSATELAHANNAAMQAEDERLRLAKAEEKAR
B8: 1–100 ^b: colicin E1 T-domain peptide, residues 1–100 (peptide)
chain: METAVAYYKDGVPYDDKGQVIITLLNGTPDGSGSGGGGGKGGSKSESSAAIHATAKWSTAQLKKTQAEQAARAKAAAEAQAKAKANRDALTQRLKDIVNE
B9: 1–81 ^c: colicin E1 T-domain peptide, residues 1–81 (peptide, UniProt P02978 1-81, looked up, fragment)
chain: METAVAYYKDGVPYDDKGQVIITLLNGTPDGSGSGGGGGKGGSKSESSAAIHATAKWSTAQLKKTQAEQAARAKAAAEAQA
B10: 81–141 ^c: colicin E1 T-domain peptide, residues 81–141 (peptide, UniProt P02978 81-141, looked up, fragment)
chain: AKAKANRDALTQRLKDIVNEALRHNASRTPSATELAHANNAAMQAEDERLRLAKAEEKARK
B11: colicin E1 T-domain peptide T57–190 (domain or fragment)
chain: WSTAQLKKTQAEQAARAKAAAEAQAKAKANRDALTQRLKDIVNEALRHNASRTPSATELAHANNAAMQAEDERLRLAKAEEKARKEAEAAEKAFQEAEQRRKEIEREKAETERQLKLAEAEEKRLAALSEEAKA
B12: colicin E3 peptide T1–83: naturally disordered T1–83 peptide of colicin E3 used for zero helical content (peptide, UniProt P00646 1-83, looked up, fragment)
chain: MSGGDGRGHNTGAHSTSGNINGGPTGLGVGGGASDGSGWSSENNPWGGGSGSGIHWGGGSGHGNGGGNGNSGGGSGTGGNLSA

Key:
[1] = Far-UV circular dichroism, helical content of T-domain peptides; type: physicochemical; conditions: for secondary structure, in words: far-UV CD, 50 mM sodium phosphate; for no. of residues, helix: from helical content by far-UV CD, DichroWeb, tags assumed unordered; for no. of residues, unordered: total number in peptide excluding tags minus residues in helices
[2] = biological target: TolC (Escherichia coli, UniProt P02930); conditions: for occlusion of TolC channels (Figure 3 legend): 2 μg/mL both sides, 50 mV, 0.1 M KCl, 5 mM Tris-HCl pH 7.5
[3] = Thermal melting followed by CD at 222 nm; type: physicochemical; conditions: CD 222 nm, 0.5 °C/min, 1 cm cuvette, pH 7.0
[4] = reference for disordered protein in CD222/CD208 plot; cited from earlier work
[5] = test system: TolC trimer; assay: Co-elution of T-domain peptides with TolC on Superdex 200 size-exclusion column; type: binding, Escherichia coli; conditions: TolC:peptide 1:2, Superdex 200; peak shift and SDS–PAGE
[6] = biological target: T1, TolC trimer (E. coli, UniProt P02930 23-493); assay: precipitation upon mixing
T1 sequence (looked up): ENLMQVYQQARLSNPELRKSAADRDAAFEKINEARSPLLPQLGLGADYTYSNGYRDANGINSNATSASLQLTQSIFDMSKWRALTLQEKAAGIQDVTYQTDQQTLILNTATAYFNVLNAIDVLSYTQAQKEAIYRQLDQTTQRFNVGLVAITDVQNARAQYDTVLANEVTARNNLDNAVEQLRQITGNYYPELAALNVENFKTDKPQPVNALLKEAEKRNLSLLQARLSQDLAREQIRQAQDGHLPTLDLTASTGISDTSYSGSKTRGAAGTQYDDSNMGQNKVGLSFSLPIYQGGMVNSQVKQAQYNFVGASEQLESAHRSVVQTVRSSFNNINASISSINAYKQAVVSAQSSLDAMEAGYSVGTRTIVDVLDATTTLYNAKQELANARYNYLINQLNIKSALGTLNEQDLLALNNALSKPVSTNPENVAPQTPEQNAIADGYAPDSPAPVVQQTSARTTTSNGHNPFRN

[7] = biological target: T1, TolC trimer; assay: SEC
[8] = biological target: T1, TolC trimer; assay: occlusion of TolC ion channels in planar bilayer lipid membranes
[9] = biological target: T1, TolC trimer; assay: SEC; remark: listed apart in the source

Molecule | no. of residues, helix [1] [residues] | no. of residues, unordered [1] [residues] | further results
1–40 ^c: colicin E1 T-domain peptide, residues 1–40 (METAVAYYKDGVPYDDKGQVIITLLNGTPDGSGSGGGGGK; UniProt P02978 1-40, looked up, fragment) | 0 | 40 | secondary structure, in words [1]: predominately disordered
81–140 ^b: colicin E1 T-domain peptide, residues 81–140 (AKAKANRDALTQRLKDIVNEALRHNASRTPSATELAHANNAAMQAEDERLRLAKAEEKAR; UniProt P02978 81-140, looked up, fragment) | – | 25 | –
100–140 ^b: colicin E1 T-domain peptide, residues 100–140 (EALRHNASRTPSATELAHANNAAMQAEDERLRLAKAEEKAR; UniProt P02978 100-140, looked up, fragment) | – | 15 | occlusion of TolC channels (Figure 3 legend) [2]: Occlusion of TolC channels; effect on transmembrane current through TolC channels ([2]; 2 μg/mL on both sides of BLM): significant and irreversible decrease in transmembrane current
139–190 ^b: colicin E1 T-domain peptide, residues 139–190 (ARKEAEAAEKAFQEAEQRRKEIEREKAETERQLKLAEAEEKRLAALSEEAKA; UniProt P02978 139-190, looked up, fragment) | – | 7 | –
141–190 ^c: colicin E1 T-domain peptide, residues 141–190 (KEAEAAEKAFQEAEQRRKEIEREKAETERQLKLAEAEEKRLAALSEEAKA) | – | 5 | cooperativity of thermal melting [3]: not cooperative
α-synuclein | – | – | helical content [4]: 0%
B1 | 44 ± 4 | 20 | co-elution / interaction with TolC, in words [5]: severe protein precipitation; binding result [6]: binds
B2 | 29 ± 2 | 51 | –
B3 | – | – | binding result [7]: binds
B4 | – | 12 | cooperativity of thermal melting [3]: not cooperative
B5 | 46 ± 12 | 74 | binding result [7]: binds; co-elution / interaction with TolC, in words [5]: Co-elution was detected
B6 | 54 ± 4 | 30 | co-elution / interaction with TolC, in words [5]: severe protein precipitation; concentration at which TolC channels were efficiently occluded ([2]; I = 0.1 M, pH 7.5): ≥ 0.2 µM; concentration at which TolC channels were not occluded ([2]; I = 0.1 M, pH 7.5): 40 nM; Kd [8]: ~100 nM
B7 | 65 ± 5 | 35 | –
B8 | 30 ± 4 | ~70 | occlusion of TolC channels (Figure 3 legend) [2]: Lack of TolC occlusion; effect on transmembrane current through TolC channels ([2]; 10 μg/mL): did not decrease the transmembrane current; increase in helical residues on lengthening the peptide ([1]; versus next shorter peptide (1–81, 1–100, 1–120, 1–140, 1–190 series)): 17 residues
B9 | 13 ± 2 | ~70 | secondary structure, in words [1]: low helical content; secondary structure, in words ([1]; listed as T1–81): predominately disordered
B10 | – | 44 | –
B11 | – | – | binding result [9]: binds
B12 | – | – | helical content ([1]; reference for disordered protein in CD222/CD208 plot): 0%
